± gives the standard deviation of the averaged measurements.
The sequences below were run on Saccharomyces cerevisiae (assay: protein stability index of tFT-peptide fusion (C-terminal peptide) (PSI (0-1 scale)); higher = more stable (slower turnover)). Conditions: genetic background: wild type; temperature: 30 C.
Description: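 Multiplexed protein stability (MPS) profiling in S. cerevisiae. Random 12-aa peptides (tFT-X12 library) are fused to the C-terminus of a sfGFP-mCherry tandem fluorescent timer, after mCherry and a GGGS linker. Cells are FACS-sorted into 8 mCherry/sfGFP bins and deep-sequenced. The protein stability index (PSI) is the read-weighted bin average, scaled from 0 (unstable) to 1 (stable). Only peptides with >10 reads are reported; cells were grown at 30 °C in SC-His with glucose.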
Work on GRGKKRKERAER yielded a protein stability index of 0.649 ± 0.045.
With GRGRWRGGVAVE the protein stability index was 0.802 ± 0.13.
GRGRWRSVYLRG was tested, and the protein stability index was 0.622 ± 0.0078.
In the case of GRGVWEFGGGGG, the protein stability index is reported as 0.666 ± 0.056.
GRIPELVWWLDD showed a protein stability index of 0.76 ± 0.037.
For GRIVPSFQGSPQ, the protein stability index was 0.723 ± 0.093.
Sequence GRKGGEGERERT has a protein stability index of 0.6715 ± 0.0049.
GRKRWVRLSLAC showed a protein stability index of 0.563 ± 0.028.
In the case of GRKVPQRRQSAR, the protein stability index is reported as 0.749 ± 0.015.
GRLGSTRRPPSG gave a protein stability index of 0.701 ± 0.0095.
Work on GRLIERCSLRMT yielded a protein stability index of 0.68 ± 0.055.
GRLKSTSTIRRF was tested, and the protein stability index was 0.722 ± 0.021.
For GRLLCFLFCCSS, the protein stability index was 0.603 ± 0.035.
In the case of GRLRGGGPVAAR, the protein stability index is reported as 0.692 ± 0.053.
GRLRNVSLLSFC gave a protein stability index of 0.662 ± 0.011.
GRPHRYWRVVPY was tested, and the protein stability index was 0.68 ± 0.036.
GRPKGGGIGEAG gave a protein stability index of 0.6928 ± 0.00079.
With GRPKNSYNQNSG the protein stability index was 0.747 ± 0.013.
In the case of GRPLRAPPPPSP, the protein stability index is reported as 0.65 ± 0.043.
GRPYEHVVDPWR showed a protein stability index of 0.733 ± 0.029.
GRRFCYQASAGQ gave a protein stability index of 0.642 ± 0.0093.
GRRGCSGGLKGL showed a protein stability index of 0.675 ± 0.039.
Work on GRRGGGTGAPSR yielded a protein stability index of 0.65 ± 0.05.
GRRVVRGWLVRR showed a protein stability index of 0.683 ± 0.095.
For GRRWGGERVREG, the protein stability index was 0.66 ± 0.015.
For GRRWPVPGGVSA, the protein stability index was 0.693 ± 0.09.
GRSPMGDGGFFS showed a protein stability index of 0.7284 ± 0.0034.
In the case of GRTKFIPTPSTY, the protein stability index is reported as 0.712 ± 0.023.
GRVQARGRPGLD was tested, and the protein stability index was 0.632 ± 0.045.
With GRWGRGGASVVT the protein stability index was 0.649 ± 0.029.
In the case of GSACSLCGLYFN, the protein stability index is reported as 0.709 ± 0.073.
Sequence GSCVVRKFGKRS has a protein stability index of 0.681 ± 0.016.
In the case of GSDDLVSVSSAE, the protein stability index is reported as 0.708 ± 0.028.
For GSDEVGTGWGRL, the protein stability index was 0.669 ± 0.13.
Work on GSFFFFLAPSYF yielded a protein stability index of 0.636 ± 0.014.
GSGAQVERCRWE gave a protein stability index of 0.719 ± 0.02.
GSGGLRVVCLLM gave a protein stability index of 0.653 ± 0.027.
Work on GSGRNMHLRGSL yielded a protein stability index of 0.65 ± 0.019.
For GSGTGRWPGYGS, the protein stability index was 0.718 ± 0.088.
GSILPSGFLSFA was tested, and the protein stability index was 0.7472 ± 0.003.
GSLGTTTILRKT gave a protein stability index of 0.67 ± 0.064.
Work on GSLLSEERGRYW yielded a protein stability index of 0.75 ± 0.026.
With GSNKWATANKYG the protein stability index was 0.6561 ± 0.0033.
GSPLASSPSVID gave a protein stability index of 0.704 ± 0.041.
Sequence GSPPSPPLPPPP has a protein stability index of 0.674 ± 0.023.
GSPTSAPLSPPP was tested, and the protein stability index was 0.686 ± 0.0038.
For GSQSPKEEYHES, the protein stability index was 0.632 ± 0.045.
In the case of GSRAECWEVGGV, the protein stability index is reported as 0.6742 ± 0.004.
GSRPVSAGCAYS showed a protein stability index of 0.655 ± 0.038.
GSSGGVWPDLNY gave a protein stability index of 0.701 ± 0.012.
In the case of GSSGQPDSPPIS, the protein stability index is reported as 0.684 ± 0.015.
In the case of GSSLRRLPASCD, the protein stability index is reported as 0.676 ± 0.066.
For GSSQGCLICSIA, the protein stability index was 0.649 ± 0.049.
For GSTNNHEVTENI, the protein stability index was 0.688 ± 0.013.
Sequence GSTRHFMSEKRE has a protein stability index of 0.743 ± 0.079.
With GSTSSSFPVSIR the protein stability index was 0.727 ± 0.045.
GSVGFPDRLLCL showed a protein stability index of 0.73 ± 0.033.
Work on GSVLPPPAPPPL yielded a protein stability index of 0.674 ± 0.021.
GSVSWVLMWSWG gave a protein stability index of 0.623 ± 0.059.
With GSWAVQEHMLLE the protein stability index was 0.728 ± 0.065.
Sequence GSWGEGGVAVGG has a protein stability index of 0.653 ± 0.032.
GSWRVLVLLGEL gave a protein stability index of 0.636 ± 0.029.
In the case of GTCGDRGRGGER, the protein stability index is reported as 0.559 ± 0.023.
With GTDRRGRDAPHS the protein stability index was 0.586 ± 0.031.
GTEYDENSGTNE showed a protein stability index of 0.642 ± 0.011.
Sequence GTGDGRHRCRWN has a protein stability index of 0.6655 ± 0.006.
Work on GTGGRMIRWGLG yielded a protein stability index of 0.667 ± 0.061.
Sequence GTGQSRAEGARP has a protein stability index of 0.672 ± 0.015.
Work on GTLPLGVRGGLK yielded a protein stability index of 0.657 ± 0.081.
With GTQTITAQRAAA the protein stability index was 0.643 ± 0.015.
GTRGGGGWSCES was tested, and the protein stability index was 0.701 ± 0.06.
GTRRIDSKDICP gave a protein stability index of 0.742 ± 0.04.
GTRVGRARGGRK gave a protein stability index of 0.835 ± 0.047.
Sequence GTSDPRGSGPAG has a protein stability index of 0.715 ± 0.015.
Work on GTVGTGFGGGVE yielded a protein stability index of 0.677 ± 0.12.
For GTVTVLVGVHWE, the protein stability index was 0.539 ± 0.008.
GTWEGDTSACAR was tested, and the protein stability index was 0.636 ± 0.047.
GVAEGRKVGAST showed a protein stability index of 0.654 ± 0.036.
GVAKRGREGCWS gave a protein stability index of 0.569 ± 0.065.
GVAVVSGREGRG gave a protein stability index of 0.7809 ± 0.0063.
Work on GVCGRWWTCMGV yielded a protein stability index of 0.722 ± 0.061.
For GVCRGSRVGLVP, the protein stability index was 0.714 ± 0.025.
GVCRVAVGGGAT was tested, and the protein stability index was 0.713 ± 0.033.
GVCSRAVGSGSF was tested, and the protein stability index was 0.715 ± 0.067.
With GVDGGGKWRGWG the protein stability index was 0.651 ± 0.06.
GVFASWAWFGVG was tested, and the protein stability index was 0.71 ± 0.046.
GVFGFGARLCIG gave a protein stability index of 0.6782 ± 0.0043.
Sequence GVFGLMVGWGWA has a protein stability index of 0.665 ± 0.083.
With GVFGWAGCGVVL the protein stability index was 0.7188 ± 0.0043.
In the case of GVGGFGFGWSMV, the protein stability index is reported as 0.725 ± 0.057.
With GVGGGRRGGGGG the protein stability index was 0.6409 ± 0.0036.
GVGLDSMCVEGF gave a protein stability index of 0.723 ± 0.1.
GVGLLAHLLIYR showed a protein stability index of 0.556 ± 0.0086.
GVGREGEIGGGG gave a protein stability index of 0.544 ± 0.037.
In the case of GVGRVGLACFVV, the protein stability index is reported as 0.542 ± 0.029.
GVGWRGGCEGGV gave a protein stability index of 0.711 ± 0.062.
With GVIRGNRLELIV the protein stability index was 0.618 ± 0.025.
GVKMVHERHNRV showed a protein stability index of 0.665 ± 0.057.

From the supplement of paper PMC10724198
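Further: PSI is a weighted mean of sequencing reads over stability bins, variants kept only with over 10 reads, mCherry proximal and sfGFP distal, peptide attached via GGGS linker.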
